Here are results for five molecules from patent US20170015742A1 (published 2017).

In one assay the target is VEGF-A (UniProt P15692-4 27-191, limits assumed). Put plainly: SPR (Biacore), DVD-Ig captured by anti-human Fc, antigen injected. Here is the method:
(§1) For example, approximately 9000 RU of goat anti-human Fc specific polyclonal antibody (Thermo Fisher Scientific Inc., Rockford, Ill.) diluted in 10 mM sodium acetate (pH 4.5) is directly immobilized across a CM5 research grade biosensor chip using a standard amine coupling kit according to manufacturer's instructions and procedures at 25 μg/ml. Unreacted moieties on the biosensor surface were blocked with ethanolamine. For kinetic analysis, rate equations derived from the 1:1 Langmuir binding model were fitted simultaneously to multiple antigen injections (using global fit analysis) with the use of Scrubber 2 (BioLogic Software), Biacore Biaevaluation 4.0.1 software or Biacore T100 Evaluation software. Purified antibodies or DVD-Ig molecules were diluted in running buffer for capture across goat anti-human Fc reaction surfaces. Antibodies or DVD-Ig molecules to be captured as a ligand (1 μg/ml) were injected over reaction matrices at a flow rate of 10 μl/minute. During the assay, all measurements were referenced against the capture surface alone (i.e., with no captured antibody or DVD-Ig molecule). […] The equilibrium dissociation constant KD (M) of the reaction between antibodies and the target antigen was then calculated from the kinetic rate constants by the following formula: KD=Koff/Kₒₙ. Binding was recorded as a function of time and kinetic rate constants were calculated.
On the technique in general: SPR reads the build-up and loss of mass on a sensor chip optically.

Another assay deals with PDGF-BB (UniProt P01127 82-190). Described as above. As to the method:
as §1

Sequence of VEGF-A (P15692 other isoform, or with tags, fused parts or gaps limits assumed): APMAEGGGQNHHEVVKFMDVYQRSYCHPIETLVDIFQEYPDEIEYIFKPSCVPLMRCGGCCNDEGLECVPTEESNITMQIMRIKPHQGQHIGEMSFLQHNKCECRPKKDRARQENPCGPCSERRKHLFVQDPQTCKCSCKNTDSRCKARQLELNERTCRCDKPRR
Sequence of PDGF-BB (P01127 82-190): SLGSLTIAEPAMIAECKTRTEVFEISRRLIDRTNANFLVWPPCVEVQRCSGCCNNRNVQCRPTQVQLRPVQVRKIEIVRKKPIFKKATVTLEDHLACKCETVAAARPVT

B1: CL-33675_GS_4G8.5 (PR-1612496) (bispecific antibody, human IgG1, kappa, L234A L235A)
heavy: EVTLRESGPALVKPTQTLTLTCTFSGFSLSTYGMGVGWIRQPPGKALEWLANIWWDDDKYYNPSLKNRLTISKDTSKNQVVLTMTNMDPVDTATYYCARIESSGPKYSFDYWGQGTMVTVSSGGGGSGGGGSEIQLVQSGSELKKPGASVKVSCKASGYTFTNYGMYWVRQAPGQGLEYMGWINTETGKPTYADDFKGRFVFSLDTSVSTAYLQISSLKAEDTAVYFCARTNYYYRSYIFYFDYWGQGTMVTVSSASTKGPSVFPLAPSSKSTSGGTAALGCLVKDYFPEPVTVSWNSGALTSGVHTFPAVLQSSGLYSLSSVVTVPSSSLGTQTYICNVNHKPSNTKVDKKVEPKSCDKTHTCPPCPAPEAAGGPSVFLFPPKPKDTLMISRTPEVTCVVVDVSHEDPEVKFNWYVDGVEVHNAKTKPREEQYNSTYRVVSVLTVLHQDWLNGKEYKCKVSNKALPAPIEKTISKAKGQPREPQVYTLPPSREEMTKNQVSLTCLVKGFYPSDIAVEWESNGQPENNYKTTPPVLDSDGSFFLYSKLTVDKSRWQQGNVFSCSVMHEALHNAYTQKSLSLSPGK
light: EIVLTQSPGTLSLSPGERATLSCRASSGSIWYSFVSWYQQKPGQAPRLLIYADDQRASGIPDRFSGSGSGTDFTLTISRLEPEDFAVYYCQSYGINIDVVFGGGTKVEIKGGSGGGGSGGATQLTQSPSLSASVGDRVTITCRASESVSTHMHWYQQKPGKQPKLLIYGASNLESGVPSRFSGSGSGTDFTLTISSLQPEDFATYFCQQSWNDPFTFGQGTKLEIKRTVAAPSVFIFPPSDEQLKSGTASVVCLLNNFYPREAKVQWKVDNALQSGNSQESVTEQDSKDSTYSLSSTLTLSKADYEKHKVYACEVTHQGLSSPVTKSFNRGEC
notes: DVD-Ig: outer CL-33675 (PDGF), inner hBDB-4G8.5 (VEGF), linkers GS-H10 / GS-L10(dR); Human IgG1 L234A, L235A, H435A with kappa light chain
Consider B1, for which, in the assay with VEGF-A, the affinity, expressed as Kd, was 0.18 nM and the kon (usually the rate constant with which the complex forms) came out at 230000 M⁻¹ s⁻¹. Besides, in the assay with PDGF-BB, the Kd – broadly, the equilibrium constant for the complex coming apart – came out at 0.00023 nM and the kon came to 3.8e+07 M⁻¹ s⁻¹.

B2: 3E2.1_GS_4G8.5 (PR-1612499) (bispecific antibody, human IgG1, kappa, L234A L235A)
heavy: EVQLVQSGAEVKKPGSSVKVSCKASGYTFTESYMYWVKQAPGQGLELIGRIDPEDGSTDYVEKFKNKATLTADKSTSTAYMELSSLRSEDTAVYFCARFGARSYFYPMDAWGQGTTVTVSSGGGGSGGGGSEIQLVQSGSELKKPGASVKVSCKASGYTFTNYGMYWVRQAPGQGLEYMGWINTETGKPTYADDFKGRFVFSLDTSVSTAYLQISSLKAEDTAVYFCARTNYYYRSYIFYFDYWGQGTMVTVSSASTKGPSVFPLAPSSKSTSGGTAALGCLVKDYFPEPVTVSWNSGALTSGVHTFPAVLQSSGLYSLSSVVTVPSSSLGTQTYICNVNHKPSNTKVDKKVEPKSCDKTHTCPPCPAPEAAGGPSVFLFPPKPKDTLMISRTPEVTCVVVDVSHEDPEVKFNWYVDGVEVHNAKTKPREEQYNSTYRVVSVLTVLHQDWLNGKEYKCKVSNKALPAPIEKTISKAKGQPREPQVYTLPPSREEMTKNQVSLTCLVKGFYPSDIAVEWESNGQPENNYKTTPPVLDSDGSFFLYSKLTVDKSRWQQGNVFSCSVMHEALHNAYTQKSLSLSPGK
light: ETVLTQSPATLSLSPGERATLSCRASESVSTLMHWYQQKPGQQPRLLIYGASNLESGVPARFSGSGSGTDFTLTISSLEPEDFAVYFCQQSWNDPWTFGGGTKVEIKGGSGGGGSGGATQLTQSPSLSASVGDRVTITCRASESVSTHMHWYQQKPGKQPKLLIYGASNLESGVPSRFSGSGSGTDFTLTISSLQPEDFATYFCQQSWNDPFTFGQGTKLEIKRTVAAPSVFIFPPSDEQLKSGTASVVCLLNNFYPREAKVQWKVDNALQSGNSQESVTEQDSKDSTYSLSSTLTLSKADYEKHKVYACEVTHQGLSSPVTKSFNRGEC
notes: DVD-Ig: outer hBFU-3E2.1 (PDGF), inner hBDB-4G8.5 (VEGF), linkers GS-H10 / GS-L10(dR); Human IgG1 L234A, L235A, H435A with kappa light chain
On to B2, for which, in the assay with VEGF-A, the Kd was determined as 0.17 nM and the kon was found to be 240000 M⁻¹ s⁻¹. In the assay with PDGF-BB, this molecule had an equilibrium dissociation constant (Kd) of at most 0.0038 nM and an on-rate constant (kon) of at least 9e+07 M⁻¹ s⁻¹.

B3: 3E2.1_GS_9E10.1 (PR-1612500) (bispecific antibody, human IgG1, kappa, L234A L235A)
heavy: EVQLVQSGAEVKKPGSSVKVSCKASGYTFTESYMYWVKQAPGQGLELIGRIDPEDGSTDYVEKFKNKATLTADKSTSTAYMELSSLRSEDTAVYFCARFGARSYFYPMDAWGQGTTVTVSSGGGGSGGGGSEIQLVQSGSELKKPGASVKVSCKASGYTFTNYGMYWVKQAPGQGLEYMGWIDTETGRPTYADDFKGRFVFSLDTSVSTAYLQISSLKAEDTAVYFCARWSGDTTGIRGPWFAYWGQGTLVTVSSASTKGPSVFPLAPSSKSTSGGTAALGCLVKDYFPEPVTVSWNSGALTSGVHTFPAVLQSSGLYSLSSVVTVPSSSLGTQTYICNVNHKPSNTKVDKKVEPKSCDKTHTCPPCPAPEAAGGPSVFLFPPKPKDTLMISRTPEVTCVVVDVSHEDPEVKFNWYVDGVEVHNAKTKPREEQYNSTYRVVSVLTVLHQDWLNGKEYKCKVSNKALPAPIEKTISKAKGQPREPQVYTLPPSREEMTKNQVSLTCLVKGFYPSDIAVEWESNGQPENNYKTTPPVLDSDGSFFLYSKLTVDKSRWQQGNVFSCSVMHEALHNAYTQKSLSLSPGK
light: ETVLTQSPATLSLSPGERATLSCRASESVSTLMHWYQQKPGQQPRLLIYGASNLESGVPARFSGSGSGTDFTLTISSLEPEDFAVYFCQQSWNDPWTFGGGTKVEIKGGSGGGGSGGDIRMTQSPSSLSASVGDRVTIECLASEDIYSDLAWYQQKPGKSPKLLIYNANGLQNGVPSRFSGSGSGTDYSLTISSLQPEDVATYFCQQYNYFPGTFGQGTKLEIKRTVAAPSVFIFPPSDEQLKSGTASVVCLLNNFYPREAKVQWKVDNALQSGNSQESVTEQDSKDSTYSLSSTLTLSKADYEKHKVYACEVTHQGLSSPVTKSFNRGEC
notes: DVD-Ig: outer hBFU-3E2.1 (PDGF), inner hBEW-9E10.1 (VEGF), linkers GS-H10 / GS-L10(dR); Human IgG1 L234A, L235A, H435A with kappa light chain
As for B3, in the assay with VEGF-A, the Kd was found to be 0.019 nM and the on-rate (kon) turned out to be 630000 M⁻¹ s⁻¹. In the assay with PDGF-BB, the Kd is at most 0.0043 nM and the association rate constant (kon) was at least 9e+07 M⁻¹ s⁻¹.

B4: 3E2.1_GS_9E10.6 (PR-1612501) (bispecific antibody, human IgG1, kappa, L234A L235A)
heavy: EVQLVQSGAEVKKPGSSVKVSCKASGYTFTESYMYWVKQAPGQGLELIGRIDPEDGSTDYVEKFKNKATLTADKSTSTAYMELSSLRSEDTAVYFCARFGARSYFYPMDAWGQGTTVTVSSGGGGSGGGGSEVQLVQSGAEVKKPGSSVKVSCKASGYTFTNYGMYWVRQAPGQGLEWMGWIDTETGRPTYADDFKGRFTFTADKSTSTAYMELSSLRSEDTAVYYCARWSGDTTGIRGPWFAYWGQGTLVTVSSASTKGPSVFPLAPSSKSTSGGTAALGCLVKDYFPEPVTVSWNSGALTSGVHTFPAVLQSSGLYSLSSVVTVPSSSLGTQTYICNVNHKPSNTKVDKKVEPKSCDKTHTCPPCPAPEAAGGPSVFLFPPKPKDTLMISRTPEVTCVVVDVSHEDPEVKFNWYVDGVEVHNAKTKPREEQYNSTYRVVSVLTVLHQDWLNGKEYKCKVSNKALPAPIEKTISKAKGQPREPQVYTLPPSREEMTKNQVSLTCLVKGFYPSDIAVEWESNGQPENNYKTTPPVLDSDGSFFLYSKLTVDKSRWQQGNVFSCSVMHEALHNAYTQKSLSLSPGK
light: ETVLTQSPATLSLSPGERATLSCRASESVSTLMHWYQQKPGQQPRLLIYGASNLESGVPARFSGSGSGTDFTLTISSLEPEDFAVYFCQQSWNDPWTFGGGTKVEIKGGSGGGGSGGDIRMTQSPSSLSASVGDRVTITCLASEDIYSDLAWYQQKPGKSPKLLIYNANGLQNGVPSRFSGSGSGTDYTLTISSLQPEDVATYFCQQYNYFPGTFGQGTKLEIKRTVAAPSVFIFPPSDEQLKSGTASVVCLLNNFYPREAKVQWKVDNALQSGNSQESVTEQDSKDSTYSLSSTLTLSKADYEKHKVYACEVTHQGLSSPVTKSFNRGEC
notes: DVD-Ig: outer hBFU-3E2.1 (PDGF), inner hBEW-9E10.6 (VEGF), linkers GS-H10 / GS-L10(dR); Human IgG1 L234A, L235A, H435A with kappa light chain
In the assay with VEGF-A, B4 displayed a dissociation constant Kd of 0.041 nM and a kon of 570000 M⁻¹ s⁻¹. In addition, in the assay with PDGF-BB, the Kd was at most 0.0053 nM and the kon was at least 9e+07 M⁻¹ s⁻¹.

B5: 3E2.1_GS_1B10.1 (PR-1612502) (bispecific antibody, human IgG1, kappa, L234A L235A)
heavy: EVQLVQSGAEVKKPGSSVKVSCKASGYTFTESYMYWVKQAPGQGLELIGRIDPEDGSTDYVEKFKNKATLTADKSTSTAYMELSSLRSEDTAVYFCARFGARSYFYPMDAWGQGTTVTVSSGGGGSGGGGSEVQLVESGGGLVQPGGSLRLSCAASGFSFSKYDMAWFRQAPGKGLEWVASITTSGVGTYYRDSVKGRFTVSRDNAKSTLYLQMNSLRAEDTAVYYCARGYGAMDAWGQGTTVTVSSASTKGPSVFPLAPSSKSTSGGTAALGCLVKDYFPEPVTVSWNSGALTSGVHTFPAVLQSSGLYSLSSVVTVPSSSLGTQTYICNVNHKPSNTKVDKKVEPKSCDKTHTCPPCPAPEAAGGPSVFLFPPKPKDTLMISRTPEVTCVVVDVSHEDPEVKFNWYVDGVEVHNAKTKPREEQYNSTYRVVSVLTVLHQDWLNGKEYKCKVSNKALPAPIEKTISKAKGQPREPQVYTLPPSREEMTKNQVSLTCLVKGFYPSDIAVEWESNGQPENNYKTTPPVLDSDGSFFLYSKLTVDKSRWQQGNVFSCSVMHEALHNAYTQKSLSLSPGK
light: ETVLTQSPATLSLSPGERATLSCRASESVSTLMHWYQQKPGQQPRLLIYGASNLESGVPARFSGSGSGTDFTLTISSLEPEDFAVYFCQQSWNDPWTFGGGTKVEIKGGSGGGGSGGDIQMTQSPSSLSASVGDRVTITCKASQDIDDYLSWYQQKPGKSPKLVIYAATRLADGVPSRFSGSGSGTDYTLTISSLQPEDFATYYCLQSSSTPWTFGGGTKVEIKRTVAAPSVFIFPPSDEQLKSGTASVVCLLNNFYPREAKVQWKVDNALQSGNSQESVTEQDSKDSTYSLSSTLTLSKADYEKHKVYACEVTHQGLSSPVTKSFNRGEC
notes: DVD-Ig: outer hBFU-3E2.1 (PDGF), inner hBEW-1B10.1 (VEGF), linkers GS-H10 / GS-L10(dR); Human IgG1 L234A, L235A, H435A with kappa light chain
B5: in the assay with VEGF-A, the dissociation constant (Kd) is 0.32 nM and the kon was 350000 M⁻¹ s⁻¹. Further, in the assay with PDGF-BB, the Kd was determined as 0.0018 nM and the kon was 8.4e+07 M⁻¹ s⁻¹.
